Measured values as given in patent US20240124575A1 (SIMCERE ZAIMING PHARMACEUTICAL, published 2024).
Values belong to the binder of their own block, whether it stands above or below them.

Key:
[1] = target: T1, human CD33-His (extracellular domain Asp 18-His 259) (human, UniProt P20138 18-259); experiment: ELISA on coated human CD33-his
T1 construct: range 18-259; bought protein; also called hCD33-his; human CD33 protein; not shown: His tag
Protocol: In order to assay the binding activity of VHH-Fc to human CD33 protein, a human CD33-his protein (purchased from ACROBiosystems, Cat. No. CD3-H5226) was diluted with PBS to make a final concentration of 2 μg/mL, and then added into a 96-well ELISA plate at 100 μL/well. The plate was sealed with a plastic film and incubated at 4° C. overnight, washed twice with PBS the next day, and a blocking solution [PBS+2% (w/w) BSA] was added for blocking at room temperature for 2 h. The blocking solution was discarded, and VHH-Fc antibody or negative control antibody serially diluted from 100 nM was added at 50 μL/well. After incubation at 37° C. for 2 h, the plate was washed 3 times with PBS. A secondary antibody labeled with HRP (horseradish peroxidase) (purchased from Sigma, Cat. No. A0170) was added. After incubation for 1 h at 37° C., the plate was washed 5 times with PBS. A TMB substrate was added at 50 μL/well. After incubation at room temperature for 10 min, a stop solution (1.0 N HCl) was added at 50 μL/well. The OD450 nm values were read on an ELISA plate reader (Multimode Plate Reader, EnSight, purchased from Perkin Elmer). The assay results for the binding of the VHH-Fc to hCD33-his by ELISA are shown in FIGS. 7A and 7B and Tables 11 and 12. […] The IgG control was hIgG1, and the data in the table are OD450 nm values. […]

[2] = target: T1, human CD33-His (extracellular domain …); experiment: competitive ELISA vs coated S006-NB146-69 3ug/mL; soluble 25ug/ml
[3] = target: T1, human CD33-His (extracellular domain …); experiment: competitive ELISA vs coated S006-NB147-25 3ug/mL; soluble 25ug/ml
[4] = target: T1, human CD33-His (extracellular domain …); experiment: competitive ELISA vs coated S006-NB146-181 3ug/mL; soluble 25ug/ml
[5] = target: T1, human CD33-His (extracellular domain …); experiment: competitive ELISA vs coated S006-NB147-220 3ug/mL; soluble 25ug/ml
human CD33-his protein [6] = target: T2, human CD33-his protein (human, UniProt P20138 18-259); experiment: competition ELISA, coated human CD33-his, vs Biotin-C33B904 at EC80; antibody 7.81 nM
T2 construct: range 18-259; bought protein; also called hCD33-his; recombinant human CD33-his; not shown: His tag
Protocol: (§1) ELISA plates were coated with 2 μg/mL human CD33-his protein according to the method in Example 5.1; the Biotin-C331B904 antibody was subjected to a gradient dilution from 15 μg/mL, and EC80 values (0.18 μg/mL) were calculated. ELISA plates were coated with 2 μg/mL human CD33-his protein; starting from 40 μg/mL, the VHH antibodies to be tested were diluted in a 1:2 dilution ratio to obtain seven concentrations and added to the ELISA plates, and then Biotin-C331904 antibodies with the EC80 concentrations were added for incubation for 2 h. The plates were washed 5 times with PBS and then […] (purchased from Sigma, Cat. No. S2438) were added for incubation for 1 h, and the plates were washed 5 times. A TMB substrate was added at 50 μL/well and incubated at room temperature for 10 min, then a stop solution (1.0 M HCl) was added at 50 μL/well. OD_{450 nm} values were read using an ELISA plate reader (Insight, purchased from PerkinElmer). Then, analysis was performed by software (GraphPad Prism8), and data were fitted for curve plotting. The results are shown in FIGS. 13A-13B and Tables 28 and 29.

human CD33-his protein [7] = target: T2, human CD33-his protein; experiment: competition ELISA, coated human CD33-his, vs Biotin-C33B904 at EC80; antibody 3.91 nM
Protocol: (§2) The plate was sealed with a plastic film and incubated at 4° C. overnight, washed twice with PBS the next day, and a blocking solution [PBS+2% (w/w) BSA] was added for blocking at room temperature for 2 h. The blocking solution was discarded, and VHH-Fc antibody or negative control antibody serially diluted from 100 nM was added at 50 μL/well. After incubation at 37° C. for 2 h, the plate was washed 3 times with PBS. A secondary antibody labeled with HRP (horseradish peroxidase) (purchased from Sigma, Cat. No. A0170) was added. After incubation for 1 h at 37° C., the plate was washed 5 times with PBS. A TMB substrate was added at 50 μL/well. After incubation at room temperature for 10 min, a stop solution (1.0 N HCl) was added at 50 μL/well. The OD450 nm values were read on an ELISA plate reader (Multimode Plate Reader, EnSight, purchased from Perkin Elmer). The assay results for the binding of the VHH-Fc to hCD33-his by ELISA are shown in FIGS. 7A and 7B and Tables 11 and 12. […] The IgG control was hIgG1, and the data in the table are OD450 nm values.
(§3) ELISA plates were coated with 2 μg/mL human CD33-his protein according to the method in Example 5.1; the Biotin-C331B904 antibody was subjected to a gradient dilution from 15 μg/mL, and EC80 values (0.18 μg/mL) were calculated. […] OD_{450 nm} values were read using an ELISA plate reader (Insight, purchased from PerkinElmer). […]

human CD33-his protein [8] = target: T2, human CD33-his protein; experiment: competition ELISA, coated human CD33-his, vs Biotin-C33B904 at EC80; antibody 7.81 nM; remark: listed apart in the source
Protocol: as §2, §3

human CD33-his protein [9] = target: T2, human CD33-his protein; experiment: competition ELISA, coated human CD33-his, vs Biotin-C33B904 at EC80; antibody 125.00 nM
Protocol: as §1

human CD33-his protein [10] = target: T2, human CD33-his protein; experiment: competition ELISA, coated human CD33-his, vs Biotin-C33B904 at EC80; antibody 0 nM (no competitor)
Protocol: as §1

T2 sequence (P20138 18-259 limits assumed): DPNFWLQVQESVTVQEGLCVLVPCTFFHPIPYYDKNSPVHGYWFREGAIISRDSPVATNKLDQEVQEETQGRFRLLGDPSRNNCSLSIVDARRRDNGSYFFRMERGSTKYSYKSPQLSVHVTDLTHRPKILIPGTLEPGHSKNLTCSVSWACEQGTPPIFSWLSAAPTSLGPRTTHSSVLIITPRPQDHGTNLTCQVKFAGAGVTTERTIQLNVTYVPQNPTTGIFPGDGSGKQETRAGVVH
T1 sequence (P20138 18-259 limits assumed): as above

- EC50 (read off the curve) [1]: ~0.3 nM
- inhibition rate [2]: 99%
- inhibition rate [3]: 99%
- inhibition rate [4]: 100%
- inhibition rate [5]: 98%
B1: C33B904 hIgG1 (antibody, V domains shown)
VH: EVQLVESGGGLVQPGRSLRLSCAASGFTFDDYAMHWVRQAPGKGLEWVSGIGWSGGSIVYADSVKGRFTISRDNAKNSLYLQMNSLRAEDTALYYCAKDSPYGDFFDYWGQGTLVTVSS
VL: DIVMTQSPDSLAVSLGERATINCKSSQTVFYSSNNKNYLAWYQQKPGQPPKLLISWASTRKSGVPDRFSGSGSGTDFTLTVSSLQAEDVAVYYCQHYYSTPYTFGQGTKLEIKR
notes: intact human IgG1; variable regions from US20190382481A1; also called C33B3904; C331B904

- OD450 (Biotin-C33B904 signal) (human CD33-his protein [6]): 1.11
- OD450 (Biotin-C33B904 signal) (human CD33-his protein [7]): 2.25
- OD450 (Biotin-C33B904 signal) (human CD33-his protein [8]): 1.72
- OD450 (Biotin-C33B904 signal) (human CD33-his protein [9]): 0.13
- OD450 (Biotin-C33B904 signal) (human CD33-his protein [10]): 2.33
B2: C33B904 (antibody, human IgG1, kappa, V domains shown)
VH: B1 VH
VL: B1 VL
notes: control antibody, intact human IgG1 form; variable regions from US20190382481A1; also called C33B904 hIgG1; C331B904
